Patent publication US20170114104A1 (KOREA ADVANCED INSTITUTE OF SCIENCE AND TECHNOLOGY, published 2017)

T1: Biotinylated protein G (biotin-protein G) (site-specifically biotinylated in the N-terminal biotinylation peptide (AP, SEQ ID NO: 4) by BirA; labelled with atto532)
T1 construct: About 12 kDa protein G with the N-terminal AP peptide; also called biotin-protein G-atto532
T1 chain: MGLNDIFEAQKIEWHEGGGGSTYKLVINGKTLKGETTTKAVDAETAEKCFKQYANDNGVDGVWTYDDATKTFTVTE


What was measured:
[1] = target: T2, Biotinylated green fluorescent protein (biotin-GFP) (site-specifically biotinylated in the N-terminal biotinylation peptide (AP, SEQ ID NO: 4) by biotin ligase BirA); assay: 15 % native-PAGE gel mobility shift, fluorescence of biotin-GFP [a]
T2 construct: Negatively charged GFP with the N-terminal AP biotinylation peptide

[2] = target: T1, Biotinylated protein G (biotin-protein …); assay: native-PAGE off-rate under excess biotin, 37 °C
From the text: (§1) Data as ln(fraction bound) versus time and fitting the data to a straight line by linear regression. Dissociation rates were deduced from the slope of the line and the following equation:

[3] = target: T2, Biotinylated green fluorescent protein …; assay: native-PAGE off-rate under excess biotin, 37 °C
From the text: as §1

[4] = target: T2, Biotinylated green fluorescent protein …; assay: native-PAGE off-rate under excess biotin, 45 °C
From the text: as §1

[5] = target: T2, Biotinylated green fluorescent protein …; assay: native-PAGE off-rate under excess biotin, 37 °C; remark: listed apart in the source
From the text: as §1

[6] = target: T2, Biotinylated green fluorescent protein …; assay: native-PAGE off-rate under excess biotin, 45 °C; reference streptavidin
From the text: as §1

| Binder | binding result [1] | koff [2] | koff [3] | koff [4] | dissociation half-life [5] | fold faster off-rate than tetrameric streptavidin [6] |
| --- | --- | --- | --- | --- | --- | --- |
| Monomeric rhizavidin with one mutation (1M: S69R) (designed binder) FDASNFKDFSSIASASSSWQNQSGSTMIIQVDSFGNVSGQYVNRAQGTGCQNSPYPLTGRVNGTFIAFRVGWNNSTENCNSATGWTGYAQVNGNNTEIVTSWNLAYEGGSGPAIEQGQDTFQYVPTTE | binds | – | – | – | – | – |
| Monodin (MA) (designed binder, Expressed from pET21a and purified on Ni-NTA (His6 tag); also called mRA E115W/S23H/Q46E) FDASNFKDFSSIASASSSWQNQHGSTMIIQVDSFGNVSGQYVNRAEGTGCQNSPYPLTGRVNGTFIDFSVKWNNSTENCNSNTQWTGYAQVNGNNTEIVTRWNLKYEGGSGPAIWQGQDTFQYVPTTE | – | 4.6e-05 s⁻¹ | 2.3e-05 s⁻¹ | 6.4e-05 s⁻¹ | 8.3 h | 3.4 fold |
| Rhizavidin (RA) (other, Homodimer; Purified on Ni-NTA; also called dimeric rhizavidin; wild type rhizavidin) FDASNFKDFSSIASASSSWQNQSGSTMIIQVDSFGNVSGQYVNRAQGTGCQNSPYPLTGRVNGTFIAFSVGWNNSTENCNSATGWTGYAQVNGNNTEIVTSWNLAYEGGSGPAIEQGQDTFQYVPTTE | – | 3.2e-05 s⁻¹ | 5e-05 s⁻¹ | 6e-05 s⁻¹ | 3.8 h | – |
